Literature values, collected in patent US9504757B2, “Site-specific GLP-2 conjugate using an immunoglobulin fragment” (HANMI SCIENCE CO., LTD., priority 2011, dated 2016).

Settings: inactivation by DPP IV; Bolette H. et al. 2000

Q: With “HADGSFSDEMNTILDNLAARDFINWLIQTKITD [GLP-2]” as the sequence, how does the in vivo half-life read?
A: The in vivo half-life was at most 7 min.
